In patent publication US11053304 (CENTIVAX, dated 2021):
Like-named read-outs stand apart in the source and are kept apart here.

Key:
Test in all cases: SPR, scFv captured via anti-V5, RBD as analyte
[1] = molecular target: T1, SARS-CoV-2 Receptor Binding Domain (RBD) protein (SARS-CoV-2, UniProt P0DTC2 319-541)
[2] = molecular target: MERS Receptor Binding Domain (RBD) protein (MERS coronavirus, UniProt K9N5Q8 367-606)
[3] = molecular target: T1, SARS-CoV-2 Receptor Binding Domain …; remark: listed apart in the source
[4] = molecular target: SARS-CoV-1 Receptor Binding Domain (RBD) protein (SARS-CoV-1, UniProt P59594 306-527)

| Binder | Kd [1] | koff [1] | kon [1] | binding result [2] | Kd [3] | binding result [4] |
| --- | --- | --- | --- | --- | --- | --- |
| COVID19_P08_C12 (scFv, V domains shown) VH: EVQLVESGGGLVQPGGSLRLSCAASGFTFNNYALHWVRQAPGKGLEWVSGVSWNGSRTHYADSVKGRFTISRDNSKNTLYLQMNSLRAEDTAVYYCVTNLDNSRDYFPHYFHDMDVWGQGTLVTVSS VL: not shown | 1.1 nM | 5.7e-05 s⁻¹ | 53000 M⁻¹ s⁻¹ | no binding (tested: up to 300 nM) | < 50 nM | no binding (tested: up to 300 nM) |
| COVID19_P07_H01 (scFv, V domains shown) VH: EVQLVESGGGLVQPGGSLRLSCAASGFTFRSYAMHWVRQAPGKGLEWVAVISSDGRNKFYADSVKGRFTISRDNSKNTLYLQMNSLRAEDTAVYYCVTNMDNSRDYFPHYFHDMDVWGQGTLVTVSS VL: DIVMTQSPLSLPVTPGEPASISCRSSQSLLHSNGNNYMDWYLQKPGQSPQLLIYLASQRASGVPDRFSGSGSGTDFTLKISRVEAEDVGVYYCMQALQRPLTFGGGTKVEIKR | 2.9 nM | 5.7e-05 s⁻¹ | 19900 M⁻¹ s⁻¹ | no binding (tested: up to 300 nM) | < 50 nM | no binding (tested: up to 300 nM) |
| COVID19_P20_B06 (scFv, V domains shown) VH: EVQLVESGGGLVQPGGSLRLSCAASGFTFHDYAMHWVRQAPGKGLEWVAVTSYDGNTKYYADSVKGRFTISRDNSKNTLYLQMNSLRAEDTAVYYCVTNLDNSRDYFPHYFHDMDVWGQGTLVTVSS VL: not shown | 5.1 nM | 0.000439 s⁻¹ | 86000 M⁻¹ s⁻¹ | no binding (tested: up to 300 nM) | < 50 nM | no binding (tested: up to 300 nM) |
| COVID19_P07_D09 (scFv, V domains shown) VH: EVQLVESGGGLVQPGGSLRLSCAASGFSFSRYGMHWVRQAPGKGLEWVSGISADGGTAYYADSVKGRFTISRDNSKNTLYLQMNSLRAEDTAVYYCVTNMDNSRDYFPHYFHDMDVWGQGTLVTVSS VL: not shown | 1.8 nM | 5.7e-05 s⁻¹ | 32500 M⁻¹ s⁻¹ | no binding (tested: up to 300 nM) | < 50 nM | no binding (tested: up to 300 nM) |
| COVID19_P07_F02 (scFv, V domains shown) VH: EVQLVESGGGLVQPGGSLRLSCAASGFAFSNYGMHWIRQAPGKGLEWVSGIDGSGGTAHYADSVKGRFTISRDNSKNTLYLQMNSLRAEDTAVYYCVTNMDNSRDYFPHYFHDMDVWGQGTLVTVSS VL: not shown | 10.1 nM | 0.00018 s⁻¹ | 17800 M⁻¹ s⁻¹ | no binding (tested: up to 300 nM) | < 50 nM | no binding (tested: up to 300 nM) |
| COVID19_P19_B08 (scFv, V domains shown) VH: EVQLVESGGGLVQPGGSLRLSCAASGFTFSDHYMDWVRQAPGKGLEWVAAIGASGESTYYADSVKGRFTISRDNSKNTLYLQMNSLRAEDTAVYYCVTQRDNSRDYFPLWFHDMDVWGQGTLVTVSS VL: DIVMTQSPLSLPVTPGEPASISCRSSQSLLYSDGDTYLDWYLQKPGQSPQLLIYLGSIRAPGVPDRFSGSGSGTDFTLKISRVEAEDVGVYYCMQSIQTPWTFGGGTKVEIKR | 32.7 nM | 0.00685 s⁻¹ | 209000 M⁻¹ s⁻¹ | no binding (tested: up to 300 nM) | < 50 nM | no binding (tested: up to 300 nM) |
| COVID19_P19_H07 (scFv, V domains shown) VH: EVQLVESGGGLVQPGGSLRLSCAASGFTFGTSAVSWVRQAPGKGLEWVSAISGSGGSTYYADSVKGRFTISRDNSKNTLYLQMNSLRAEDTAVYYCVTQRDNSRDYFPHYFHDMDVWGQGTLVTVSS VL: DIVMTQSPLSLPVTPGEPASISCRSSQSLLYSDGDTYLDWYLQKPGQSPQLLIYLGSIRAPGVPDRFSGSGSGTDFTLKISRVEAEDVGVYYCMQGLETPWTFGGGTKVEIKR | 37 nM | 0.00786 s⁻¹ | 212000 M⁻¹ s⁻¹ | no binding (tested: up to 300 nM) | < 50 nM | no binding (tested: up to 300 nM) |
